pKd: −log10 of the molar value.
Biological target: FcγRIIIa-bio (UniProt P08637)
Experiment: BLI (Fortebio), FcγRIIIa-bio immobilized on SA sensor, antibody 31.3-500 nM, 1:1 fit

UniProt P08637, sequence (P08637 17-208 limits assumed): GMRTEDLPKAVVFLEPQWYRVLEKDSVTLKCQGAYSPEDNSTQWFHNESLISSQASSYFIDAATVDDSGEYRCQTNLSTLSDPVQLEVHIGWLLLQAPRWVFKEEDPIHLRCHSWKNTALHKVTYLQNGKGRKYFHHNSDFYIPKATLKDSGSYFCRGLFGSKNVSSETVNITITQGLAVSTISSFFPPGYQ

- pKd: 6.85
- koff: 0.0342 s⁻¹
- kon: 243000 M⁻¹ s⁻¹
Substance: MEDI9447 (Oleclumab) (antibody)

Reference: patent US20250129163A1
